Experimental findings from patent US7319140 (SCHERING, dated 2008) are described below.

Numbering of substitutions follows the chain as printed.

The target in assay [1] is T1, CD94/NKG2C receptor (disulfide-linked heterodimer) (human, UniProt Q13241 1-179; P26717 1-231).
T1 construct: whole, on cells; Expressed in Ba/F3 transfectants; also called CD94/NKG2C heterodimer
Put plainly: summary of example XII.

Another assay has as its target T2, KIR2DS2 (human, UniProt P43631 22-304).
T2 construct: whole, on cells; Expressed in Ba/F3 or Jurkat transfectants; also called NKAT5
Put plainly: co-immunoprecipitation from 125I-labelled Ba/F3 transfectants. An excerpt: Unlike CD94/NKG2C, KIR2DS2 molecules are expressed on the cell surface in the absence of DAP12, although they are unable to induce cellular activation (Bléry, et al. (1997) *J. Biol. Chem.* 272:8989-8996; Lanier, et al. (1998) *Nature* 391:703-707). KIR2DS2+ Ba/F3 cells were infected with retroviruses encoding either wild-type FLAG-DAP12 or the D-A transmembrane FLAG-DAP12 mutant receptor. Both KIR2DS2 and the mutant DAP12 protein were expressed on the cell surface. […] Like NKG2A and NKG2C, the KIR2DS2 protein has a counterpart, KIR2DL2, that lacks a charged amino acid in the transmembrane and contains an ITIM in its cytoplasmic domain. It has been previously reported that KIR2DL2 is unable to associate with DAP12 (Lanier, et al. (1998) *Nature* 391:703-707). Collectively, these findings indicate that the association of DAP12 with either KIR2DS2 or CD94/NKG2C complexes likely results from interactions involving the transmembrane domains of these proteins.

For the next assay, the target named is T3, Ly49D (mouse, UniProt Q60651 1-263).
T3 construct: whole, on cells; Expressed in Ba/F3 transfectants; also called mouse Ly49D
T3 sequence (looked up): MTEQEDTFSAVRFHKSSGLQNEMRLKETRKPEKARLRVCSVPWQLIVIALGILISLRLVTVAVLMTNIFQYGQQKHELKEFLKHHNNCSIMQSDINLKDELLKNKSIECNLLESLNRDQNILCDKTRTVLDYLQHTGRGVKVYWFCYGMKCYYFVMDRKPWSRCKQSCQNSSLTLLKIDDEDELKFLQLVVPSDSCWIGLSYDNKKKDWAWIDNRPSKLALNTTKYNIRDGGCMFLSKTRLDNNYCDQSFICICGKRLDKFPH
In words: co-immunoprecipitation from transfected Ba/F3 cells. An excerpt: (§1) Transcripts of Ly49D and Ly49H are present in IL-2 activated NK cells (20). Ly49D is expressed on ~50% of NK cells (Mason, et al. (1996) *J. Exp. Med.* 184:2119), and is associated with a tyrosine phosphoprotein of 16 kD (Mason, et al. (1998) *J. Immunol.* 160:4148-4152). Murine NK cells, like human NK cells, transcribe mRNA for DAP12, a molecule which associates with the activating KIR2DS and mediates cellular activation (Lanier, et al. (1998) *Nature* 391:703). To examine if Ly49D or Ly49H associated with DAP12, Ba/F3 cells were stably transfected with an epitope-tagged mouse DAP12 (DAP12-FLAG). […] Ba/F3 or the Ba/F3-DAP12 transfectants were then infected with retroviruses encoding either Ly49D, a myc epitope tagged Ly49H (Ly49H-myc), or as a control Ly49A. Neither Ly49D nor Ly49H-myc was expressed at appreciable levels on the cell surface when transfected into Ba/F3 cells.
(§2) To confirm that Ly49D and Ly49H non-covalently associate with DAP12 at the cell surface, Ly49D/DAP12-FLAG or Ly49H-myc/DAP12-FLAG Ba/F3 transfectants were surface iodinated, lysed with digitonin, and immunoprecipitates were analyzed by SDS-PAGE.

In assay [2] the target is T4, myc epitope tagged Ly49H (Ly49H-myc) (mouse, UniProt Q60682 1-266).
T4 construct: whole, on cells; Expressed in Ba/F3 transfectants; also called mouse Ly49H
T4 sequence (looked up): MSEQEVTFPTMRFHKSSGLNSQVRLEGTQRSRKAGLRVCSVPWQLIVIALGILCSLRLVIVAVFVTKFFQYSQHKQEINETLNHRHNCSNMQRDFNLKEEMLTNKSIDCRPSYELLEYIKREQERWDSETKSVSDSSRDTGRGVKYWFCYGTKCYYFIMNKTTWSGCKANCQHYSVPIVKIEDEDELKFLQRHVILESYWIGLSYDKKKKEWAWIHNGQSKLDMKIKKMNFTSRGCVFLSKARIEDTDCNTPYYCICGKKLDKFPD
The description is as above.
From the text: as §1, §2

T2 sequence (P43631 22-304): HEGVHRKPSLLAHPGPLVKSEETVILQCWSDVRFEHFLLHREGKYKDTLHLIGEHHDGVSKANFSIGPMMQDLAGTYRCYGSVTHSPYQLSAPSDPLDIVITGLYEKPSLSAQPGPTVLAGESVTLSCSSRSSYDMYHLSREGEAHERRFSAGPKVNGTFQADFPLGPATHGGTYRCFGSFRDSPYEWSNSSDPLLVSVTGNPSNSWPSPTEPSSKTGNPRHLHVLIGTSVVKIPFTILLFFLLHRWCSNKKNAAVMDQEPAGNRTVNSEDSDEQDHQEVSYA
T1 sequence (Q13241 whole entry, chain 1 of 2): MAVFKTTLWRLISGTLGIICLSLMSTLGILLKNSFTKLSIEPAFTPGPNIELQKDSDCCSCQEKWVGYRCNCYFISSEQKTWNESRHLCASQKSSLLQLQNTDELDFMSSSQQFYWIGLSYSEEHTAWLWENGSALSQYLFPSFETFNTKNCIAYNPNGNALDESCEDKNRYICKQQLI
T1 sequence (P26717 whole entry, chain 2 of 2): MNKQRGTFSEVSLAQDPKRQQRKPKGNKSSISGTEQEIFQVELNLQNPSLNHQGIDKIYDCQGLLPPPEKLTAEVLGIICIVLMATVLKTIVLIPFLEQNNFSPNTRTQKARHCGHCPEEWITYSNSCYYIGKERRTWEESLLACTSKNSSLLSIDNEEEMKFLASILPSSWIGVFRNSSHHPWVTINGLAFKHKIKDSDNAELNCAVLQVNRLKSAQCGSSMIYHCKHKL

B1: DAP12-FLAG (human DAP12 with a FLAG epitope tag at the N terminus) (receptor, not shown: small tags and cut ends)
chain: QAQSDCSCSTVSPGVLAGIVMGDLVLTVLIALAVYFLGRLVPRGRGAAEAATRKQRITETESPYQELQGQRSDVYSDLNTQRPYYK
notes: Made as CD8 leader, FLAG, then DAP12 without its own leader; Runs as a disulfide-bonded homodimer on the cell surface; also called FLAG-DAP12
As to B1, in assay [1], the binding result is “binds”.

B2: D-A transmembrane FLAG-DAP12 mutant receptor (receptor, not shown: small tags and cut ends)
chain: B1 chain with D23A
notes: also called mutant DAP12 protein
With B2, in the assay with KIR2DS2, the binding result is recorded as “no binding”.

B3: epitope-tagged mouse DAP12 (DAP12-FLAG) (receptor, not shown: small tags and cut ends)
chain: AQSDTFPRCDCSSVSPGVLAGIVLGDLVLTLLIALAVYSLGRLVSRGQGTAEGTRKQHIAETESPYQELQGQRPEVYSDLNTQRQYYR
notes: Limits of the construct are not described; also called mouse DAP12-FLAG; FLAG-tagged form of mouse DAP12
As to B3, the binding result (with Ly49D; in assay [2]) was “binds” throughout.
